Values of other authors, collected in paper PMC2787657.
Like-named read-outs stand apart in the source and are kept apart here.

Columns and labels:
[1] = target: CI-MPR cytoplasmic domain (Homo sapiens) (UniProt P11717)
[2] = target: CI-MPR cytoplasmic domain (Homo sapiens) (UniProt P11717); remark: listed apart in the source

Chain of UniProt P11717 (P11717 2328-2491): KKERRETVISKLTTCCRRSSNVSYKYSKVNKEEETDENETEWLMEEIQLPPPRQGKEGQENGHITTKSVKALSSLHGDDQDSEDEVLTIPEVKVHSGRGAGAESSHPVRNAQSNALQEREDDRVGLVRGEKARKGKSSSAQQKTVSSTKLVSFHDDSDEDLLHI

Kd [1]: 900 nM
Kd [2]: 300 nM
Substance: TIP47 (from UniProt O60664)
